Test results: the supplement of paper PMC9170038

Tested on: MS2 coat protein
Experiment: apparent KD of MS2 coat protein; higher = weaker reporter binding
Settings: Eterna round: R107
Method in brief: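 The buffer was 100 mM Tris-HCl pH 7.5 with 80 mM KCl and 4 mM MgCl2, used without or with constant ligand. In it, RNA switches transcribed on-chip from Illumina sequencing clusters were titrated with SNAP-549-labelled MS2 coat protein in twofold steps from 0.7 or 1.5 nM to 3 µM. Apparent KD for each design is the median of its normalised cluster binding-curve fits.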

[1] = input ligand: theophylline 20 uM
[2] = input ligand: theophylline 2 mM
[3] = input ligand: tryptophan 2.4 mM

Sequence | apparent KD of MS2 coat protein (input ligand: arginine 13.2 mM) [nM] | apparent KD of MS2 coat protein (input ligand: none) [nM] | apparent KD of MS2 coat protein [1] [nM] | apparent KD of MS2 coat protein [2] [nM] | apparent KD of MS2 coat protein [3] [nM]
UCACGACGGAUGGAUACCAGCGACAUGAGGAUCACCCAUGUAUGAGGAUCAGCCAUGUUAUGCCCUUGGCAGCCACGAAGGUCAU [YYYMULLIN] | 13.2 | 19 | 29.3 | 195 | 18.2
UCACGUGGGAAUGAUACCAGCCACAUGAGGAUCACCCAUGUGCAUGGUGUGAGCUUCACGGGCCCUUGGCAGCAUUUCAAGUCGC [Agelaus] | 39.9 | – | 93.1 | – | 37.9
UCGAUGGUACCCGAUACCAGCAAUACAUCACAGACCUGAUACAUGAGGAUCACCCAUGUGUGCCCUUGGCAGCGGGUCCUGAAAA [theeternabot_exclusion_MS2_Theo_B_25] | 17.5 | – | 28.5 | – | 20.6
UCGCUCGCCGCAAGGCGAGCGAGUUGCGAUACCAGCCCGGAAACGGGCCCUUGGCAGCGCACAUGAGGAUCACCCAUGUCAUGUU [#1 Exclusion - Theophylline A Attempt #4 (HarryS)] | 24.7 | 25 | 31.3 | 30.4 | 16.1
UCGCUCUGGGUGGGAUCCGGAGAUGUGGAAGGAGCGCUGGUUACAGCAGGUAGGUCGCCAACGGACAUGAGGAUCACCCAUGUAC [Same State - Arginine A (Freestyle 16)] | 53.3 | 41.3 | 49.4 | 39.5 | 36.2
UCGGGCAGAGCGGCCGCCACUGUAUGGCAUGCGGAUGAAGGAACAUGAGGAUCACCCAUGUAGAUUAGGACCGGGCUUGCGGAGA [p''pmullin] | 29.1 | 19.8 | 22.9 | 17.7 | 20
UCGGGCAGAGCGGCCGCCACUGUAUGGCGUGCGGAUGACGGAACAUGAGGAUCACCCAUGUUGUUUAGGACCGGGCUUGCCGCGA [cocmullin] | 14 | – | 14.7 | 11.5 | –
UCGUAUGCGGCGGCCGCCACUCGCGGAUAACGAGAGCUUAACAUGAGGAUCACCCAUGUGUCAUGGAGGACCGGGCCCAUUCACA [popmullin] | 30.4 | – | 40.2 | 37.5 | –
UCGUGUAUAACGGAUACCAGUGAGAAGGAUACAUGAGGAUCACCCAUGUGAGUUGAUGUACACCCUUGGCAGCUGUAUAUAUCUA [llpmullin] | 58.3 | – | 81.9 | – | 73.3
UCGUGUGUUUCGGAUACCAGUGAAAUCGAUACAUGAGGAUCACCCAUGUGAGAGGAUGUACACCCUUGGCAGCUGGCUGUAGCGG [yyzmullin] | 32.1 | – | 56.9 | – | 44.3
UCUGUUUGCUUUGUUUGUUUCUUCUUUGAGCGAGGACCGGUACGGCCGCCACUCGGGUUACAUGAGGAUCACCCAUGUGGUUUCU [Interesting] | 72.3 | – | 163 | 149 | –
UGACAUUGCUCAGAUACCAGACAUGAGGAUCACCCAUGUGCCAAAUACGUACAAAUAAAUGUCCCUUGGCAGCUGAGCAAUGUCU [TheoBX 12 #MS2Left #Theo2] | 16.2 | – | 22.2 | – | 14.4
UGAGAGGGCAGAAGGAGCGACAUGAGGAUCACCCAUGUCUCCCGUUAUGGGAGUUCUUUAGGUCAGGUAGGUCGCUGGCCUCUCA [#1 Exclusion - Arginine B Attempt #9 (Inspired by Omei)] | 54 | 117 | 135 | 146 | 99.5
UGAUAUAGGGAGCCGUAUCAGAAACCUGAAGGAGCGCCGGAAAAGGCAGGUAGGUCGCGGGAACAUGAGGAUCACCCAUGUAUUC [dancer_small] | 17.4 | 19 | 21.2 | 19.2 | 18.3
UGAUAUGUAGGAAGGAGCGCAUACUUCACAUGAGGAUCACCCAUGUCAAGACGUGAGUCAGUGCAGGUAGGUCGCCUAGUUAUGA [Same State - Arginine B (Freestyle 20)] | 30.2 | 44.9 | 41 | 36.9 | 36
UGCAUUAUACAUGGAUCACCCAUGUAGACACGAGGACCGGUACGGCCGCCACUCGGAAGAGGGAACAUGAGGAUCACCCAUGUGA [Try A SS t1] | 25.6 | – | 73.1 | 55 | –
UGCCUAAAGUCGGCCGCCACUGAUGGUAUCCUCUCCUCGAGGUCACACAUGAGGAUCACCCAUGUCAGGACCGGGACUAGUGAGA [theeternabot_exclusion_MS2_Trp_B_36] | 7.11 | – | 9.65 | 7.48 | –
UGGUACAUGGCGGCCGCCACUUCACGUAAAAUAAAAACUUGAGGAACACCCAAGUAAUAAGUUGGGAGGACCGGGUCAUGUACCU | 35.3 | 36.2 | 41.7 | 39.1 | 26.1
UGGUACAUGGCGGCCGCCACUUCACGUAAAAUAAAAACUUGAGGAUCACCCAAGUAAUAAGUUGGGAGGACCGGGUCAUGUACCU | 18.4 | – | 23.2 | 19.2 | 14
UGGUUUCGGUCAAUCACCGGUCCCUGGGAAGGAGCGGACUCAUGUCCAGGUAGGUCGCCCAGACAUGAGGAUCACCCAUGUGACA [Tiusdiin] | 32.5 | 174 | 409 | 142 | 24.1

Sequence | apparent KD of MS2 coat protein (input ligand: arginine 13.2 mM) [nM] | apparent KD of MS2 coat protein (input ligand: none) [nM] | apparent KD of MS2 coat protein [1] [nM] | apparent KD of MS2 coat protein [2] [nM] | apparent KD of MS2 coat protein [3] [nM]
UGUAACAUGAGGAUCACCCAUGUGAGUGAUACCAGAUUAGUAGUAGUCCCUUGGCAGCACAUUGGGCGAGUGUAUAGUCUAUGCG [Same State - Theophylline A (Freestyle 11)] | 94.6 | – | 219 | – | 155
UGUAACAUGAGGAUCACCCAUGUGCACGAUACCAGCUUCGAAAGAGGCCCUUGGCAGCGUAUGCGUAAGCUGUAUAAUAUAUAUC [#28 SameState-TheophyllineA] | 11.1 | – | 14.4 | – | 10.6
UGUAUGGACUGAAGGAGCGGGUAAAUAACUUGAGGAUCACCCAGGUAAAAGGCGAAAGCCACCCAGGUAGGUCGCAGUCCAUACU | 23.6 | 21.1 | 32.1 | 29.2 | 25.5
UGUAUGGACUGAAGGAGCGGGUAAUAAACCUGAGGAUCACCCAGGUAAUAGGCGAAAGCCACCCAGGUAGGUCGCAGUCCAUACU | 9.98 | 14.1 | 16.1 | 15.1 | 13.2
UGUAUGGACUGAAGGAGCGGGUUGAUAUCAUGAGGAUCACCCAUGGAAAAGGCGAAAGCCGCCCAGGUAGGUCGCAGUCCAUACU | 25.1 | – | 38 | 37.5 | 26
UGUAUGGACUGAAGGAGCGGUAGAUAACCUGAGGAUCACCCGGGUAAUAAAGGCGAAAGCCACCAGGUAGGUCGCAGUCCAUACU | 93.3 | 206 | 173 | 321 | 262
UGUAUGUGAUCUGAUACCAGCUUUGAUAACCUGAGGAUCACCCUGGUAAAGGCGAAAGCCAGCCCUUGGCAGCAGAUCGCAUACU | 69.8 | 49.1 | 39.6 | 20.7 | 49.6
UGUAUGUGAUCUGAUACCAGUCCAACUGGUAAAAGAUGAGGAUCACCCAUCUAAAAUUGGGACCCUUGGCAGCAGAUCGCAUACU | 91.7 | 264 | 122 | 13.7 | 264
UGUAUGUGAUGGGAUACCAGACCAGCUGGUGAUACAUGAGGAUCACCCAUGUAAAUUUGGGUCCCUUGGCAGCCCAUCGCAUACU [SSTheo B #25] | 32.4 | 22 | 68 | 63.7 | 23.9
UGUAUGUGAUUUGAUACCAGACCAGCUGGUGGUACUUGAGGAACACCCAAGUAGGUUUGGGUCCCUUGGCAGCAAAUCGCAUACU [SS Theo B #24 Ms11] | 110 | – | 160 | 29.9 | 138
UGUAUGUGAUUUGAUACCAGACCAGCUGGUGGUGCAUGAGGAACACCCAUGCAGGUUUGGGUCCCUUGGCAGCAAAUCGCAUACU [SS Theo B #24 Ms19] | 149 | – | 150 | 33 | 130
UGUAUGUGAUUUGAUACCAGACCAGCUGGUGGUGCAUGAGGAUCACCCAUGCAGGUUUGGGUCCCUUGGCAGCAAAUCGCAUACU [SS Theo B #24 Ms17] | 72.5 | 119 | 135 | 21.6 | 129
UGUAUGUGAUUUGAUACCAGACCAGCUGGUGUUACAAGAGGAUCACCCUUGUAGGUUUGGGUCCCUUGGCAGCAAAUCGCAUACU [SS Theo B #24 Ms4] | 94.2 | 136 | 135 | 17.5 | 190
UGUAUGUGAUUUGAUACCAGACCAGCUGGUGUUAUAUGAGGAUCACCCAUAUAGGUUUGGGUCCCUUGGCAGCAAAUCGCAUACU [SS Theo B #24 Ms14] | 40.7 | 28.6 | 38.8 | 17.4 | 32.5
UGUAUUACGAAAGUAGUACAUCGUGUUCGACGAGGACCGGUACGGCCGCCACUCGGACAUGAGGAUCACCCAUGUAGCGAAAGCU [Tryptophan A 25] | 93.8 | – | 354 | 491 | –
UGUGUCGUCUGAAGGAGCGGCUCUUGAUCCUCGUGAGACAUGAGGAUCACCCAUGUCUCGAGCCAGGUAGGUCGCAGGCGGCACA [#26 Exclusion - Arginine B] | 7.08 | 16.2 | 12.8 | 13.6 | 14.1
UUAAUCAAUAUAGAAAACUAUAUUGCAGAAGGAGCGUGAUAAAACACAGGUAGGUCGCUGAAGGGAACAUGAGGAUCACCCAUGU [AstrosSSArgA#5] | 24.8 | 23.4 | 32.5 | 26.3 | 26.2
UUAAUCAGGUUAGAAAACUAAUUUGCAGAAGGAGCGUGAUAAAACACAGGUAGGUCGCUGAAGGGAACAUGAGGAUCACCCAUGU [AstrosSSArgA#10] | 22.9 | 26.3 | 32.7 | 28.5 | 26
UUAAUGGAGCUUUAAUUUACGAUUUCUGAUACCAGUGUUUCAUUUCACCCUUGGCAGCAGUGACAUGAGGAUCACCCAUGUAAUA [JR_Nu_SSTheophyA_Sub022] | 23.7 | – | 35.5 | – | 26.4
UUAGAUAUGACAGAUACCAGCGUGUUGUAGAACAUGAGGAUCACCCAUGUAGUGAUCGAGCGCCCUUGGCAGCUGGUGUGUUUGG [7.S] | 163 | – | 303 | – | 319
